This is an account of results in article PMC6995525, “Structure of the PUB Domain from Ubiquitin Regulatory X Domain Protein 1 (UBXD1) and Its Interaction with the p97 AAA+ ATPase” (Biomolecules, 2019).

Positions count from the first letter of the chain named. In names and notes the source's numbering stands. Entries after “also recorded” stand apart in the source; their conditions may differ.

First the molecules themselves.
B1: N201D: UBXD1-PUB point mutant (protein)
chain: STDPVAASIMKIYTFNKDQDRVKLGVDTIAKYLDNIHLHPEEEKYRKIKLQDKVFQERINCLEGTHEFFEAIGFQKVLLPAQDQEDPEEFYVLSETTLAQPQSLERHKEQLLAAE
modifications: left off: His6, N-terminal, cleaved
notes: UBXD1-PUB point mutant
B2: R207E: UBXD1-PUB point mutant (protein)
chain: B1 chain with D52N, R58E
modifications: left off: His6, N-terminal, cleaved
notes: UBXD1-PUB point mutant
B3: Y194A: UBXD1-PUB point mutant (protein)
chain: B1 chain with Y45A, D52N
modifications: left off: His6, N-terminal, cleaved
notes: UBXD1-PUB point mutant
B4: V203A: UBXD1-PUB point mutant (protein)
chain: B1 chain with D52N, V54A
modifications: left off: His6, N-terminal, cleaved
notes: UBXD1-PUB point mutant
B5: K198E: UBXD1-PUB point mutant (protein)
chain: B1 chain with K49E, D52N
modifications: left off: His6, N-terminal, cleaved
notes: UBXD1-PUB point mutant
B6: N184A: UBXD1-PUB point mutant (protein)
chain: B1 chain with N35A, D52N
modifications: left off: His6, N-terminal, cleaved
notes: UBXD1-PUB point mutant
B7: N184D: UBXD1-PUB point mutant (protein)
chain: B1 chain with N35D, D52N
modifications: left off: His6, N-terminal, cleaved
notes: UBXD1-PUB point mutant
B8: N201A: UBXD1-PUB point mutant (protein)
chain: B1 chain with D52A
modifications: left off: His6, N-terminal, cleaved
notes: UBXD1-PUB point mutant
B9: Y194F: UBXD1-PUB point mutant (protein)
chain: B1 chain with Y45F, D52N
modifications: left off: His6, N-terminal, cleaved
notes: UBXD1-PUB point mutant
B10: Y181A: UBXD1-PUB point mutant (protein)
chain: B1 chain with Y32A, D52N
modifications: left off: His6, N-terminal, cleaved
notes: UBXD1-PUB point mutant
B11: wild type (wt): N-terminal hexahistidine-tagged UBXD1-PUB (150–264), tag cleaved with thrombin (protein)
chain: B1 chain with D52N
modifications: left off: His6, N-terminal, cleaved
notes: N-terminal hexahistidine-tagged UBXD1-PUB (150–264), tag cleaved with thrombin
B12: Q200A: UBXD1-PUB point mutant (protein)
chain: B1 chain with Q51A, D52N
modifications: left off: His6, N-terminal, cleaved
notes: UBXD1-PUB point mutant
B13: E206R: UBXD1-PUB point mutant (protein)
chain: B1 chain with D52N, E57R
modifications: left off: His6, N-terminal, cleaved
notes: UBXD1-PUB point mutant
B14: Y181F: UBXD1-PUB point mutant (protein)
chain: B1 chain with Y32F, D52N
modifications: left off: His6, N-terminal, cleaved
notes: UBXD1-PUB point mutant
B15: K193E: UBXD1-PUB point mutant (protein)
chain: B1 chain with K44E, D52N
modifications: left off: His6, N-terminal, cleaved
notes: UBXD1-PUB point mutant
B16: PNGase K50A, Y51A double mutant: PNGase double mutant (protein, UniProt Q96IV0 2-654, looked up, variant K50A Y51A)
Peptide-N(4)-(N-acetyl-beta-gl …: AAAALGSSSGSASPAVAELCQNTPETFLEASKLLLTYADNILRNPNDEAARSIRIGNTAFSTRLLPVRGAVECLFEMGFEEGETHLIFPKKASVEQLQKIRDLIAIERSSRLDGSNKSHKVKSSQQPAASTQLPTTPSSNPSGLNQHTRNRQGQSSDPPSASTVAADSAILEVLQSNIQHVLVYENPALQEKALACIPVQELKRKSQEKLSRARKLDKGINISDEDFLLLELLHWFKEEFFHWVNNVLCSKCGGQTRSRDRSLLPSDDELKWGAKEVEDHYCDACQFSNRFPRYNNPEKLLETRCGRCGEWANCFTLCCRAVGFEARYVWDYTDHVWTEVYSPSQQRWLHCDACEDVCDKPLLYEIGWGKKLSYVIAFSKDEVVDVTWRYSCKHEEVIARRTKVKEALLRDTINGLNKQRQLFLSENRRKELLQRIIVELVEFISPKTPKPGELGGRISGSVAWRVARGEMGLQRKETLFIPCENEKISKQLHLCYNIVKDRYVRVSNNNQTISGWENGVWKMESIFRKVETDWHMVYLARKEGSSFAYISWKFECGSVGLKVDSISIRTSSQTFQTGTVEWKLRSDTAQVELTGDNSLHSYADFSGATEVILEAELSRGDGDVAWQHTQLFRQSLNDHEENCLEIIIKFSDL

In one data set the target is p97-C10 peptide. The data set can be described thus: Fluorescence anisotropy, UBXD1-PUB constructs titrated to 5,6-FAM labeled p97-C10 peptide. It counts as binding. The settings on record: UBXD1-PUB (150–264) mutants titrated to 5,6-FAM labeled p97-C10 peptide (100 nM); 50 mM NaKPi, pH 6.5, 25 °C; fluorescence anisotropy ex 495/em 518 nm; fit of averaged triplicates ± standard deviation of the fit. An excerpt:
N-terminal hexahistidine-tagged UBXD1-PUB (150–264) was cloned into a pET28a expression vector using the NdeI and HindIII restriction sites. UBXD1 point mutants were produced by site-directed mutagenesis following the Quikchange protocol (Agilent Technologies).
Unlabeled p97-C10 ([…]), p97-C13 ([…]), and phosphorylated p97-C13 ([…]pYG) peptides for NMR and ITC as well as 5,6-FAM-labeled peptides for fluorescence studies were purchased from Caslo ApS (Denmark).
(§1) Fluorescence anisotropy measurements (excitation: 495 nm; emission 518 nm) were carried out on a JASCO FP-8300 fluorescence spectrometer in 50 mM NaKPi, pH 6.5 at 25 °C, titrating PUB constructs to 5,6-FAM labeled p97-C10 peptide (100 nM). All titrations were performed in triplicate. Binding curves of the averaged data were fitted with GraphPad Prism 5.0 (GraphPad) using the quadratic binding equation for a one-site specific binding model:(3) r=r0+rmax⋅(F+x+KD)−(F+x+KD)^2−4⋅x⋅F/2⋅F, with r = anisotropy, r0 = anisotropy without protein, rmax = maximum anisotropy, F = fluorescent probe (labeled peptide or protein) concentration, x = titrant protein concentration, and KD = dissociation constant.
(§2) Data points are shown as means ± standard deviation based on the three experiments. KD values are given as fit of the averaged data points ± standard deviation of the fit.
For the molecule B1, binding was put at a Kd of 280 ± 3 µM.
For B2, the Kd came to 88 ± 1 µM.
Regarding B3, binding was put at a Kd of 53 ± 2 µM.
Take B4: the Kd stood at 25.3 ± 0.5 µM.
On to B5, for which the Kd was 49.3 ± 0.8 µM.
On to B6, for which binding was put at a Kd of 28.7 ± 0.5 µM.
Turning to B7, the Kd came to 80 ± 2 µM.
As for B8, binding was put at a Kd of 64.1 ± 0.8 µM.
B9 had a Kd of 141 ± 2 µM.
On to B10, for which the Kd was 111 ± 2 µM.
Still for that read-out and setting: for B11 the value was 13.8 ± 0.3 µM.
Still for that read-out and setting: for B12 the value was 8.3 ± 0.3 µM; for B13, 39.4 ± 0.9 µM.
As to B14, the Kd was 28.4 ± 0.6 µM.
In the case of B15, the dissociation constant (Kd) worked out at 17.7 ± 0.4 µM.

Staying with this data set, now noted: UBXD1-PUB mutant vs wt, p97-C10, fluorescence anisotropy.
Take B1: the “change in p97 binding affinity versus wild type, in words” value (from here on “change … in words”) was “largest decrease in binding affinity”.
Regarding B2, the “fold change in KD / affinity versus wild type” value is on record as “six”.
As for B3, the “change … in words” value was “large decrease in affinity”.
With B8, the “fold change in KD / affinity versus wild type” value turned out to be 5 fold.
In the case of B9, the “change … in words” value was “largest decrease in binding affinity; also recorded: large decrease in affinity”.
Turning to B10, the “change … in words” value is given as “largest decrease in binding affinity”.
With B12, the “change … in words” value was “do not show a decreased affinity”.
On the same count and under the same terms, to B15 belongs “do not show a decreased affinity”.

Still in this data set, the particulars now being: UBXD1-PUB mutant vs wt, p97-C10, fluorescence anisotropy; listed as R207 to E.
As to B2, the “fold change in KD / affinity versus wild type” value worked out at 6 fold.

Another data set has as its system full-length p97 (p97-fl). The data set can be described thus: Fluorescence anisotropy, UBXD1-PUB with full-length p97. In kind it is binding. The settings on record: isolated PUB domain of UBXD1. The protocol:
as §1, §2
Consider B11, for which the “affinity for full-length p97 relative to isolated PIM peptides” value was “same range as for the isolated PIM peptides”.

Test system in the next data set: not listed separately
The data set can be described thus: CD spectroscopy, secondary structure composition. In kind it is physicochemical. To be noted: 0.15 mg/mL protein, 50 mM NaKPi pH 6.5, 25 °C, 25 scans averaged, DichroWeb CDSSTR. The protocol:
CD spectra were recorded on a Jasco J-170 CD spectrometer in a 1 mm quartz cuvette at 25 °C averaging 25 scans. Samples consisted of 0.15 mg/mL protein in 50 mM NaKPi, pH 6.5. The secondary structure composition was analyzed using DichroWeb (http://dichroweb.cryst.bbk.ac.uk) employing the CDSSTR algorithm.
For the molecule B3, the α-helical content amounted to 30%.
Same read-out and setting: to B9 belongs 50%; to B11, 80%.

Staying with this data set, now noted: 0.15 mg/mL protein, 50 mM NaKPi pH 6.5, 25 °C, compared with wild type.
As for B3, the “folding / secondary structure, in words” value is “partial loss of secondary structure”.

The subject of a further data set is p97.
Assay: not given
To be noted: qualitative pulldown; ref [29]; cited from earlier work. From the text:
The PIM binding pockets of UBXD1-PUB and its closest homologue PNGase-PUB and the position of the p97-PIM peptide inside the pocket are almost identical, with small differences (Figure 6 and Figure 7). The side chains of the conserved UBXD1-Y181 and PNGase-Y38 are in the same position, stacking with p97-Y805 and forming a putative H-bond (3.2 or 3.1 Å, respectively) to the backbone carbonyl of p97-L804. UBDXD1-Y194 and PNGase-Y51, which represent the second conserved tyrosine of the PIM pocket, both stack with p97-Y805 and are only slightly shifted with respect to each other. However, the intr ...
Consider B16, for which the “binding in pulldown assay” value is reported as “did not show impaired binding”.
